{
  "source": "patent US7125697B2",
  "about": "“Luciferase and photoprotein” (Chisso Corporation, priority 2000, dated 2006)",
  "molecules": {"B1": {"name": "19 kDa Protein: 19 kDa photoprotein component of Oplophorus luciferase, positions 28–196 of SEQ ID NO: 2, without signal sequence (protein, listed as Oplophorus gracilorostris)", "chain": "FTLADFVGDWQQTAGYNQDQVLEQGGLSSLFQALGVSVTPIQKVVLSGENGLKADIHVIIPYEGLSGFQMGLIEMIFKVVYPVDDHHFKIILHYGTLVIDGVTPNMIDYFGRPYPGIAVFDGKQITVTGTLWNGNKIYDERLINPDGSLLFRVTINGVTGWRLCENILA"}, "B2": {"name": "35 kDa Protein: 35 kDa protein component of Oplophorus luciferase, positions 40–359 of SEQ ID NO: 4, without signal sequence (protein, listed as Oplophorus gracilorostris)", "chain": "AVACPAAEDIAPCTCKVGEGDVMDMDCSKVTSDAELASIFSKTFPSNTFRELFIEFNREITTLTADSLGAATFTKIAITSCTQLKTIEENAFMASAATLEKLVLLKNDLSSFPFEEMSQYTKLNWLELSVNSITGWPALSSDTLANLILFRNPIGNIPVDAFQTLPNIEQFNCFDCSITEVEAGTFTRSPKLQKLVLGYNGLTSLPVGAIKLHGHGPTTSNLGITNNQIISFPEGAVEGIQGILGIDFNRVTSLSEEVWRPILENLFQFSLLNNPLACVCDVMWLIDSPELLAKIKGNPRCAGGKRLKNLDPAVFHAMCQ"}},
  "key": {"[1]": {"test": "Preservation test of renatured 19 kDa protein, luminescence activity", "type": "biochemical", "conditions": "for luminescence activity on preservation: 4° C.; for Luminescence activity after preservation: 4 ° C.", "procedure": "Subsequently, the 19 kDa protein renatured was subjected to the preservation test, which comprises preserving the protein in the absence or presence of 50% (v/w) or 70% (v/w) glycerol at 4° C. for 30 days and then measuring its luminescence activity as mentioned above."}, "[2]": {"test": "Luminescence activity after expression in COS7 cells, coelenterazine substrate", "type": "cell-based", "conditions": "for Luminescence activity in Cell extracts, Coelenterazine: COS7 cell extracts; for Luminescence activity in Medium, Coelenterazine: COS7 culture medium", "procedure": "(§1) Expression of the proteins as a component of Oplophorus luciferase in mammalian cultured cells COS7 was conducted using the expression plasmids pKAZ-CMV, PSKAZ-CMV, pOL-CMV and pSOL-CMV constructed in Example 10 and pRL-CMV expressing Renilla luciferase as a control for the transfection of the host. COS7 cells (2×10^5 cells) were grown in a 35 mm well-plate containing 3 ml of Dulbecco's modified Eagle's media (Gibco BRL, Rockville, Md., USA) supplemented with 10% (v/v) heat-inactivated fetal calf serum (Gibco BRL), 100 U/ml penicillin and 100 μg/ml of streptomycin. The cells were cultured at 37° C. for 24 hours and then transfected with 2 μg of each plasmid DNA using FuGENE6 transfection reagent (Rosche Diagnostics, Mannheim, Germany). After further incubation for 36 hours, cells were separated from cultured media by centrifugation. The separated cells were suspended in 0.5 ml of phosphate-buffered saline, and subjected to repeated freeze-thawing at a temperature between 37° C. and −80° C. to obtain a cell extract. One μg of coelenterazine or bisdeoxy-coelenterazine was added as a substrate into the cell extract and the intensity of the luminescence was measured by the luminometer."}, "[3]": {"test": "Luminescence activity of proteins expressed in cell-free in vitro transcription-translation system", "type": "biochemical", "conditions": "no microsomal membrane (−); 1 μg coelenterazine", "description": "Using the expression vector, pKAZ-CMV, PSKAZ-CMV, pOL-CMV or pSOL-CMV prepared in Example 10, the 19 kDa or 35 kDa protein constituting Oplophorus luciferase was expressed by means of the in vitro transcription-translation system. As a positive control, pRL-CMV expressing Renilla luciferase was used. The in vitro transcription-translation system is capable of producing a protein from a recombinant plasmid or mRNA prepared from the plasmid and is particularly useful for the luminescence system with high sensitivity for the detection. In this Example, a commercially available in vitro translation kit (TNT in vitro transcription/translation kit; Promega) was used. A fraction of microsomal membranes capable of cleaving the signal sequence for secretion was also added in order to confirm the existence of the signal sequence in the expressed proteins. The in vitro translation mixture (25 μl in total) containing 0.5 μg of the plasmid DNA, 20 μl of rabbit reticulocyte lysate, 1 μl of 1 mM methionine and 2.5 μl of microsomal membranes was incubated at 30° C. for 90 min and then 1 μl of the mixture was subjected to the measurement of its luminescent activity. […] The reaction was started by the addition of a test sample and the intensity of the luminescence was measured by the luminometer."}, "[4]": {"test": "Luminescence activity after expression in COS7 cells, bisdeoxy-coelenterazine substrate", "type": "cell-based", "procedure": "as §1"}, "[5]": {"test": "Renaturation of urea-solubilized 19 kDa protein with glycerol, luminescence activity", "type": "biochemical", "conditions": "for Luminescence Activity: 25° C., 30 minutes; for Luminescence Activity, relative value in parentheses: relative to 0 % glycerol", "procedure": "E. coli cells constructed in Example 12 which contain the expression vector pHis-KAZ and express the 19 kDa protein were disrupted by the sonication in 20 ml of a buffer comprising 20 mM Tris-HCl, pH 7.5. After centrifugation (12,000×g, 20 minutes), the precipitated fraction was subjected to the solubilization by treating with 20 ml of 20, mM Tris-HCl, pH 7.5 containing 8 M urea and then centrifuged (12,000×g, 20 minutes) to afford a soluble fraction. […] Subsequently, the soluble fraction was subjected to the nickel-chelated column chromatography and the desired protein was eluted by the linear gradient of imidazole from 0 to 0.3 M to give approximately 95% purity.\nConsequently, the protein was subjected to the renaturation step by treating with glycerol (the final concentration: from 0 to 90% (v/w)) as a solvent at 25° C. for 30 minutes to afford the 19 kDa protein renatured. As described above, the intensity of the luminescence was measured by the luminometer."}},
  "data": [
    {"molecule": "B1", "values": [
      {"measurement": "luminescence activity on preservation", "setting": "[1]; absence of glycerol, 30 days", "result": "significantly decreased"},
      {"measurement": "Luminescence activity after preservation", "setting": "[1]; glycerol 0 % v/w, 0 day", "result": 102, "unit": "rlu"},
      {"measurement": "Luminescence activity after preservation", "setting": "[1]; glycerol 0 % v/w, 30 days", "result": 23, "unit": "rlu"},
      {"measurement": "Luminescence activity after preservation", "setting": "[1]; glycerol 50 % v/w, 0 day", "result": "3,840 rlu"},
      {"measurement": "Luminescence activity after preservation", "setting": "[1]; glycerol 50 % v/w, 30 days", "result": "3,734 rlu"},
      {"measurement": "luminescence activity on preservation", "setting": "[1]; presence of glycerol (50% or 70% v/w), 30 days", "result": "maintained without decreasing"},
      {"measurement": "Luminescence activity in Cell extracts, Coelenterazine", "setting": "[2]", "result": "2,273.0 rlu"},
      {"measurement": "luminescent intensity compared with pRL-CMV", "setting": "[2]; COS7 cells", "result": "equivalent to that from pRL-CMV"},
      {"measurement": "Luminescence activity in Medium, Coelenterazine", "setting": "[2]", "result": 3.62, "unit": "rlu"},
      {"measurement": "Luminescence Activity", "setting": "[3]", "result": 1242.0, "unit": "rlu"},
      {"measurement": "Luminescence activity in Cell extracts, Bisdeoxy-coelenterazine", "setting": "[4]", "result": "2,124.0 rlu"},
      {"measurement": "luminescence activity before renaturation", "setting": "[5]; after 8 M urea solubilization and nickel-chelated column, before glycerol", "result": "no luminescence activity"},
      {"measurement": "Luminescence Activity", "setting": "[5]; glycerol 0 % v/w", "result": 83, "unit": "rlu"},
      {"measurement": "Luminescence Activity, relative value in parentheses", "setting": "[5]; glycerol 0 % v/w", "result": "(1.0)"},
      {"measurement": "Luminescence Activity", "setting": "[5]; glycerol 10 % v/w", "result": 147, "unit": "rlu"},
      {"measurement": "Luminescence Activity, relative value in parentheses", "setting": "[5]; glycerol 10 % v/w", "result": "(1.8)"},
      {"measurement": "Luminescence Activity", "setting": "[5]; glycerol 20 % v/w", "result": 375, "unit": "rlu"},
      {"measurement": "Luminescence Activity, relative value in parentheses", "setting": "[5]; glycerol 20 % v/w", "result": "(4.5)"},
      {"measurement": "Luminescence Activity", "setting": "[5]; glycerol 30 % v/w", "result": "1,258 rlu"},
      {"measurement": "Luminescence Activity, relative value in parentheses", "setting": "[5]; glycerol 30 % v/w", "result": "(15.2)"},
      {"measurement": "Luminescence Activity", "setting": "[5]; glycerol 40 % v/w", "result": "1,818 rlu"},
      {"measurement": "Luminescence Activity, relative value in parentheses", "setting": "[5]; glycerol 40 % v/w", "result": "(24.9)"},
      {"measurement": "Luminescence Activity", "setting": "[5]; glycerol 50 % v/w", "result": "3,822 rlu"},
      {"measurement": "Luminescence Activity, relative value in parentheses", "setting": "[5]; glycerol 50 % v/w", "result": "(46.0)"},
      {"measurement": "Luminescence Activity", "setting": "[5]; glycerol 60 % v/w", "result": "4,860 rlu"},
      {"measurement": "Luminescence Activity, relative value in parentheses", "setting": "[5]; glycerol 60 % v/w", "result": "(58.6)"},
      {"measurement": "Luminescence Activity", "setting": "[5]; glycerol 70 % v/w", "result": "4,462 rlu"},
      {"measurement": "Luminescence Activity, relative value in parentheses", "setting": "[5]; glycerol 70 % v/w", "result": "(53.8)"},
      {"measurement": "Luminescence Activity", "setting": "[5]; glycerol 80 % v/w", "result": "2,842 rlu"},
      {"measurement": "Luminescence Activity, relative value in parentheses", "setting": "[5]; glycerol 80 % v/w", "result": "(34.2)"},
      {"measurement": "Luminescence Activity", "setting": "[5]; glycerol 90 % v/w", "result": "2,536 rlu"},
      {"measurement": "Luminescence Activity, relative value in parentheses", "setting": "[5]; glycerol 90 % v/w", "result": "(30.6)"}
    ]},
    {"molecule": "B2", "values": [
      {"measurement": "Luminescence activity in Cell extracts, Coelenterazine", "setting": "[2]", "result": "<0.001", "unit": "rlu"},
      {"measurement": "Luminescence activity in Medium, Coelenterazine", "setting": "[2]", "result": 2.45, "unit": "rlu"},
      {"measurement": "Luminescence Activity", "setting": "[3]", "result": "<0.001", "unit": "rlu"},
      {"measurement": "Luminescence activity in Cell extracts, Bisdeoxy-coelenterazine", "setting": "[4]", "result": "<0.001", "unit": "rlu"}
    ]}
  ]
}
